Results taken from patent US20250283871A1, “COMPOSITIONS AND METHODS FOR MODULATING THE INTERACTION BETWEEN SS18-SSX FUSION ONCOPROTEIN AND NUCLEOSOMES” (Dana-Farber Cancer Institute, Inc., priority 2020, published 2025).

Tests used:
Type in all cases: cell-based, human
BAF complex components = experiment: anti-SMARCA4 (BRG1) IP mass spectrometry (Tables 7A-7C); conditions: Aska-SS cells -/+ shSSX
Method: Peptide abundance normalized to SMARCA4 abundance. […] SMARCC1, SS18, GFP, SMARCB1, and TBP levels are shown. […] T indicates 0-40 min timecourse; n=3 experimental replicates at each time point; error bars represent standard deviation.
Nuclear extracts were quantified by Bradford assay and 150-200 μg of protein was incubated with 2 μg of antibody in Buffer EB300 (50 mM Tris pH 7.5, 0.1% NP-40, 1 mM EDTA, 1 mM MgCl2, […] with protease inhibitor (Roche, C756U27), 1 mM DTT and 1 mM phenylmethylsulfonyl fluoride (PMSF)) overnight at 4° C. Each sample was then incubated with Protein G Dynabeads® (Thermo Scientific) for 2-3 hours. Beads were washed three times with Buffer EB300 followed by elution with 20 μL of elution buffer (NuPage™ LDS buffer (2×) (Life Technologies) containing 100 mM DTT and water).

Barr bodies (inactive X) = experiment: Immunofluorescence, Barr body localization; conditions: RING1A/1B-dKO HEK-293T cells
Method: Immunofluorescent images were obtained as previously described (Daou et al. (2011) Pro. Nat. Acad. Sci. U.S.A 108:2747-2752). Following lentiviral infection and/or drug treatment, cells were prepared by fixation in 3% PFA-PBS and then were permeabilized with PBS 0.1% NP40. Following incubation with primary antibodies, the Anti-rabbit Alexa Fluor® 594 and Anti-mouse Alexa Fluor® 488 (Life Technologies) secondary antibodies were used for visualization. Staining with 4′,6-diamidino-2-phenylindole (DAPI) was used to visualize nuclei. Images were acquired using Zeiss Axio Imager Z2 microscope and images were processed using ImageJ program (NIH).

H2A K119Ub = experiment: Immunoblot of H2A K119Ub deposition in RING1A/B dKO 293T cells rescued with RING1B variants; conditions: RING1A/1B-dKO HEK-293T cells
Method: Detection of proteins by western blot (WB) analysis was achieved using standard protocols with primary antibodies (Table 4). […] The membranes were then blocked in 5% milk and incubated with primary antibody in PBST over night at 4° C. Following incubation with the primary antibody, membranes were washed 3× in PBST, incubated with IRDye® (LI-COR Biosciences) secondary antibodies for 3 hours, washed 3× in PBST with a final PBS wash, and then visualized by the LI-COR Odyssey® Imaging System (LI-COR Biosciences).

Molecule	Aska (shControl)/Aska (shSS18-SSX) LFQ Intensity (Norm to SMARCA4 Rep 1) (BAF complex components; Rep 1)	Aska (shControl)/Aska (shSS18-SSX) LFQ Intensity (Norm to SMARCA4 Rep 2) (BAF complex components; Rep 2)	SS18-SSX / SSX localization after RING1B rescue (Barr bodies (inactive X))	H2A ubiquitination (H2A K119Ub)
BCL7B: BAF complex subunit quantified in the IP MS (protein, UniProt Q9BQE9 1-202, looked up) B-cell CLL/lymphoma 7 protein …: MSGRSVRAETRSRAKDDIKKVMAAIEKVRKWEKKWVTVGDTSLRIFKWVPVTDSKEKEKSKSNSSAAREPNGFPSDASANSSLLLEFQDENSNQSSVSDVYQLKVDSSTNSSPSPQQSESLSPAHTSDFRTDDSQPPTLGQEILEEPSLPSSEVADEPPTLTKEEPVPLETQVVEEEEDSGAPPLKRFCVDQPTVPQTASES	1.339	1.126	–	–
WT RING1B: wild-type RING1B re-expressed in RING1A/1B-dKO cells (protein, UniProt Q99496 2-336, looked up) E3 ubiquitin-protein ligase …: SQAVQTNGTQPLSKTWELSLYELQRTPQEAITDGLEIVVSPRSLHSELMCPICLDMLKNTMTTKECLHRFCADCIITALRSGNKECPTCRKKLVSKRSLRPDPNFDALISKIYPSRDEYEAHQERVLARINKHNNQQALSHSIEEGLKIQAMNRLQRGKKQQIENGSGAEDNGDSSHCSNASTHSNQEAGPSNKRTKTSDDSGLELDNNNAAMAIDPVMDGASEIELVFRPHPTLMEKDDSAQTRYIKTSGNATVDHLSKYLAVRLALEELRSKGESNQMNLDTASEKQYTIYIATASGQFTVLNGSFSLELVSEKYWKVNKPMELYYAPTKEHK	–	–	able to completely rescue SSX localization	–
I53A: widely-used RING1B I53A mutant (protein, UniProt Q99496 2-336, looked up, variant I53A) E3 ubiquitin-protein ligase …: SQAVQTNGTQPLSKTWELSLYELQRTPQEAITDGLEIVVSPRSLHSELMCPACLDMLKNTMTTKECLHRFCADCIITALRSGNKECPTCRKKLVSKRSLRPDPNFDALISKIYPSRDEYEAHQERVLARINKHNNQQALSHSIEEGLKIQAMNRLQRGKKQQIENGSGAEDNGDSSHCSNASTHSNQEAGPSNKRTKTSDDSGLELDNNNAAMAIDPVMDGASEIELVFRPHPTLMEKDDSAQTRYIKTSGNATVDHLSKYLAVRLALEELRSKGESNQMNLDTASEKQYTIYIATASGQFTVLNGSFSLELVSEKYWKVNKPMELYYAPTKEHK	–	–	little effect on SSX targeting	only partially attenuated H2A ubiquitination
R91E: ligase-deficient RING1 point mutant, E2 binding interface (protein, UniProt Q99496 2-336, looked up, variant R91E) E3 ubiquitin-protein ligase …: SQAVQTNGTQPLSKTWELSLYELQRTPQEAITDGLEIVVSPRSLHSELMCPICLDMLKNTMTTKECLHRFCADCIITALRSGNKECPTCEKKLVSKRSLRPDPNFDALISKIYPSRDEYEAHQERVLARINKHNNQQALSHSIEEGLKIQAMNRLQRGKKQQIENGSGAEDNGDSSHCSNASTHSNQEAGPSNKRTKTSDDSGLELDNNNAAMAIDPVMDGASEIELVFRPHPTLMEKDDSAQTRYIKTSGNATVDHLSKYLAVRLALEELRSKGESNQMNLDTASEKQYTIYIATASGQFTVLNGSFSLELVSEKYWKVNKPMELYYAPTKEHK	–	–	unable to recruit SS18-SSX	–
I53A/D56K: RING1B point mutant disrupting the E2 binding interface (protein, UniProt Q99496 2-336, looked up, variant I53A D56K) E3 ubiquitin-protein ligase …: SQAVQTNGTQPLSKTWELSLYELQRTPQEAITDGLEIVVSPRSLHSELMCPACLKMLKNTMTTKECLHRFCADCIITALRSGNKECPTCRKKLVSKRSLRPDPNFDALISKIYPSRDEYEAHQERVLARINKHNNQQALSHSIEEGLKIQAMNRLQRGKKQQIENGSGAEDNGDSSHCSNASTHSNQEAGPSNKRTKTSDDSGLELDNNNAAMAIDPVMDGASEIELVFRPHPTLMEKDDSAQTRYIKTSGNATVDHLSKYLAVRLALEELRSKGESNQMNLDTASEKQYTIYIATASGQFTVLNGSFSLELVSEKYWKVNKPMELYYAPTKEHK	–	–	unable to recruit SS18-SSX	–
